Reference: doi:10.1101/2021.12.28.474374 (bioRxiv, 2021)

Molecular target: T1, Ctc1 OB-A (residues 1-183) (Tetrahymena, UniProt A0PGB2 1-183)
T1 sequence (looked up): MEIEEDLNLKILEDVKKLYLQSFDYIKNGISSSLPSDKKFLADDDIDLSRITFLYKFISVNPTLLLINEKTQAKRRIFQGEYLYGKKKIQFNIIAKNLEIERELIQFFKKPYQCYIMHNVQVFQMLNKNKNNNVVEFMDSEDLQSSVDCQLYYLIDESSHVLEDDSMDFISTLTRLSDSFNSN
Test: NMR titration

CQQDDFGDGCLLQIVNYTHQSLK (peptide, UniProt D2CVN8 228-250, looked up) [p50 peptide (residues 228-250)]
stoichiometry N: 1
